Changes are numbered by the printed parent chain. Names may count otherwise.
B1: GST-LMM, wild type (light meromyosin of human non-muscle myosin 2A heavy chain, residues 1212-1960) (domain or fragment, UniProt P35579 1212-1960, looked up)
chain: KANLEKAKQTLENERGELANEVKVLLQGKGDSEHKRKKVEAQLQELQVKFNEGERVRTELADKVTKLQVELDNVTGLLSQSDSKSSKLTKDFSALESQLQDTQELLQEENRQKLSLSTKLKQVEDEKNSFREQLEEEEEAKHNLEKQIATLHAQVADMKKKMEDSVGCLETAEEVKRKLQKDLEGLSQRHEEKVAAYDKLEKTKTRLQQELDDLLVDLDHQRQSACNLEKKQKKFDQLLAEEKTISAKYAEERDRAEAEAREKETKALSLARALEEAMEQKAELERLNKQFRTEMEDLMSSKDDVGKSVHELEKSKRALEQQVEEMKTQLEELEDELQATEDAKLRLEVNLQAMKAQFERDLQGRDEQSEEKKKQLVRQVREMEAELEDERKQRSMAVAARKKLEMDLKDLEAHIDSANKNRDEAIKQLRKLQAQMKDCMRELDDTRASREEILAQAKENEKKLKSMEAEMIQLQEELAAAERAKRQAQQERDELADEIANSSGKGALALEEKRRLEARIAQLEEELEEEQGNTELINDRLKKANLQIDQINTDLNLERSHAQKNENARQQLERQNKELKVKLQEMEGTVKSKYKASITALEAKIAQLEEQLDNETKERQAACKQVRRTEKKLKDVLLQVDDERRNAEQYKDQADKASTRLKQLKRQLEEAEEEAQRANASRRKLQRELEDATETADAMNREVSSLKNKLRRGDLPFVVPRRMARKGAGDGSDEEVDGKADGAEAKPAE
notes: pGEX-6P-1 adds GST and a PreScission site at the N-terminus; GST kept for EM; also called WT GST-LMM; source: E. coli Rosetta 2, purified (Glutathione Sepharose 4B); not shown: GST, N-terminal, kept
B2: GST-LMM D1424G (domain or fragment, human, UniProt P35579 1212-1960, looked up)
chain: B1 chain with D213G
notes: MYH9 disease mutation; source: E. coli Rosetta 2, purified (Glutathione Sepharose 4B); not shown: GST, N-terminal, kept
B3: GST-LMM D1424N (domain or fragment, human, UniProt P35579 1212-1960, looked up)
chain: B1 chain with D213N
notes: as for B2
B4: GST-LMM E1841K (domain or fragment, human, UniProt P35579 1212-1960, looked up)
chain: B1 chain with E630K
notes: MYH9 disease mutation; also called E1814K [sic]; source: E. coli Rosetta 2, purified (Glutathione Sepharose 4B); not shown: GST, N-terminal, kept
B5: GST-LMM D1447H (domain or fragment, human, UniProt P35579 1212-1960, looked up)
chain: B1 chain with D236H
notes: as for B2
B6: GST-LMM D1447G (domain or fragment, human, UniProt P35579 1212-1960, looked up)
chain: B1 chain with D236G
notes: as for B2
B7: GST-LMM V1516M (domain or fragment, human, UniProt P35579 1212-1960, looked up)
chain: B1 chain with V305M
notes: MYH9 disease mutation; also called V1615M [sic]; source: E. coli Rosetta 2, purified (Glutathione Sepharose 4B); not shown: GST, N-terminal, kept

Target: the molecule itself
Test: negative stain electron microscopy of filaments; self-assembly into filaments on dilution into low-salt buffer (10 mM phosphate, pH 7.4, 150 mM NaCl, 0.5 mM TCEP), on ice, 200 to 500 nM protein; stained with 1% uranyl acetate

Binding result, binds:
B1, B2, B3, B4, B5, B6, B7

— PMC10770755, “Effects of specific disease mutations in non-muscle myosin 2A on its structure and function” (The Journal of Biological Chemistry, 2023)
